{"source": "the nanobody polyreactivity screen of Harvey et al. (2022)"}
{"assay": "yeast display, Sf9 membrane polyspecificity reagent, FACS + sequencing; frameworks hold sequencing errors", "how_it_was_run": "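A synthetic nanobody library was expressed on Saccharomyces cerevisiae BJ5465 by galactose induction for 36–48 hours. The library was stained for 1 hour at 4 °C with 10% biotinylated, detergent-solubilized Sf9 membrane reagent and enriched with streptavidin microbeads before FACS. Low and high (top ~1%) gates were set on anti-HA fluorescence for expression and streptavidin fluorescence for reagent binding, and each polyreactivity label reflects the gate of origin.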"}
{"sequence": "QVQLVESGGGLVQAGGSLRVSCAASGSTFSQYAMGLYRQAPGKEREFVAVITLSVVSTSYADSVKGRFTFSRDNAKNTVYLQMNSQKPEDTAVYYCNKDSGVRGPGYGYWGQGTQVTVSS", "polyreactivity (PSR sort gate)": "low polyreactivity"}
{"sequence": "QVQLVESGGGLVQAGGSLRLSCAASGSIFYYAMGWYRQAPGKERELVAAISSGGRTNYADSVKGRFTISRDNAKNTVYLQMNSLKPEDTAVYYCAAVSPYGSQYGYWGQGTQVTVSS", "polyreactivity (PSR sort gate)": "high polyreactivity"}
{"sequence": "QVQLVESGGGLVQAGGSLRLSCAASGSIIFYYAMGWYRQAPGKERDFVAGITYSGGITYYADSVKGRFTISRDNAKNTVYLQMNSMKPEDTAVYFCDYGGGVYQYGYWGQGTQVTVSS", "polyreactivity (PSR sort gate)": "low polyreactivity"}
{"sequence": "QVQLVESGGGLVQAGGSLRLSCAASGITFPRYAMGWYRQAPGKERELVATITRSGGGTYYADSVKGRFTISRDNAKNTVYLQMNSLKPEDTAVYYCAAGALQRGVYGYGYWGQGTQVTVSS", "polyreactivity (PSR sort gate)": "high polyreactivity"}
{"sequence": "QVQLVESGGGLVQAGGSLRLSCAASGITFYRYAMGWYRQAPGKERELVAAISYRGGRTFYADSVKGRFTISRDNAKNTVYLQMNSLKPEDTAVYYCNARDYYEKMDYWGQGTQVTVSS", "polyreactivity (PSR sort gate)": "high polyreactivity"}
{"sequence": "QVQLVESGGGLVQAGGSLRLSCAASGSIFTKYAMGWYRQAPGKERELVAGISRTTGSTYYADSVKGRFTISRDNAKNTVYLQMNSLKPEDTAVYYCAALSYRRGISRDGGYDYWGQGTQVTVSS", "polyreactivity (PSR sort gate)": "high polyreactivity"}
{"sequence": "QVQLVESGGGLVQAGGSLRLSCAASGRTSSSNAMGWYRQAPGKERELVATISRTGSTYYADSVKGRFTISRDNAKNTVYLQMNSLKPEDTAVYYCNRYFSEALLHGSCYNRYYYWGQGTQVTVSS", "polyreactivity (PSR sort gate)": "low polyreactivity"}
{"sequence": "QVQLVESGGGLVQAGGSLRLSCAASGSIFRSYAMGWYRQAPGKERELVSAIRGSDGNTYYADSVKGRFTISRDNAKNTVYLQMNSLKPEDTAVYYCNARSYGYRTSRARYNYWGQGTQVTVSS", "polyreactivity (PSR sort gate)": "high polyreactivity"}
{"sequence": "QVQLVESGGGLVQAGGSLRLTSAASGSIFQNYAMGWYRQAPGKERQLVAVIDDSGGITYYADSVKGRFTISRDNAKNTVYLEMNSLKPEDTAVYYCARNVNAKKVLGGFDSWGQGTQVTVSS", "polyreactivity (PSR sort gate)": "low polyreactivity"}
{"sequence": "QVHLVESGGGLVQAGGSLRLSCAASGSTFPRYSMGWYRQAPGTERELVAAITQSGGRTYYADSVKGSFTISRDNAKNTVYLQMNSRKPEDTAVYYFAAEDGLRGNRLYYWGHGTQVTVSS", "polyreactivity (PSR sort gate)": "high polyreactivity"}
{"sequence": "QVQLVESGGGLVQAGGSLRLSCAASGFTFNSYAMGWYRQAPGKERELLAAISRIGGITYYADSVKGRFTISRDNAKNTVYLQMNSLKPEDTAVYYCNTASVYVYTGRYDYWGQGTQVTVSS", "polyreactivity (PSR sort gate)": "high polyreactivity"}
{"sequence": "QVQLVESGGGLVQAGGSLRLSCAASGITFVWNAMGWYRQAPGKERELVATISRGGVRTYYADSVKGRFTISRDNAKNTVYLQMNSLKPEDTAVYYCNKRYWYPSSLHWTSFRGYDYWGQGTQVTVSS", "polyreactivity (PSR sort gate)": "low polyreactivity"}
{"sequence": "QVQLVESGGGLVQAGGSLRLSCAASGSTFVRYAMGWYRLAPGKERELVAAIAKSGGSTYYADSVKGRFTISRDIAKNTVYLQMNSLKPEDTAVDYCNSDVYKNSKVRIMGYWGLGTQVTVSS", "polyreactivity (PSR sort gate)": "low polyreactivity"}
{"sequence": "QVQLVESGGGLVQAGGSLRLSCAASGRTFKNNAMGWYRQAPGKERELVAAISSNGGSTYYADSVKGRFTISRDNAKNTVYLQMNSLKPEDTAVYYCAADRTIVEYYYWGQGTQVTVSS", "polyreactivity (PSR sort gate)": "high polyreactivity"}
{"sequence": "QVQLVESGGGLVQSGGSLRLSCAASGRIFTHYAMGWYRQAPGKERELVAALSRSGGSTYYADSVKGRFTISRDNAKNTVYLQLNSLIPEDTADYYCDADGGRYFYRGTYREMNYWAQGTQVTVSS", "polyreactivity (PSR sort gate)": "high polyreactivity"}
{"sequence": "QVQLVESGGGLVQAGGSLSLSCAASGYTFYKYAMGSYIQAPGKERELVAAISSSGGSTYYADSVKGRFTISRDNAKNTVYLQMNSLKPEDTAVNYCAAYVYSNDYDYWGQGTQVTVSS", "polyreactivity (PSR sort gate)": "high polyreactivity"}
{"sequence": "QVQLVETGGGLVQAGGSLRLSCAASGFIFVKYAMGWYRQAPGKERELVAAITTSGTGTFYADSVKGRFTISRDNAKNTVYLQMNSLKPVDTAVYYCNALGHPGDDWGQVTQVTVSS", "polyreactivity (PSR sort gate)": "low polyreactivity"}
{"sequence": "QVQLVESGGGLVQAGGSLRLSCAASGSIFKPYAMGWYRQAPGKERELVAAISYSGGSTYYADSVKGRFTISRDNAKNSVYLQMNSLKPEDTAVYYCAKRSTSRGYDYWGQGTQVTVSS", "polyreactivity (PSR sort gate)": "high polyreactivity"}
{"sequence": "QVHLVESGGGLVQAGGSLRLSCAASGSIFTRYVMGWYRQAPGKERELVAAISWSGGSTYYADSVKGRFTISRDNAKNTVYLQMNSLKPEDTAVYYCAAYYWYWSAAWWDEGEMEYWGQGTQVTVSS", "polyreactivity (PSR sort gate)": "high polyreactivity"}
{"sequence": "QVQLVESGGRLVQAGGSLRLICAASGGIFGFNAMGWYRQAPGKERELVADISDGVRTNYADSVKWRFTISRDNAKNTVFLQMNSLKPEDTAVNYCATDGVYYVDGSWTLGYWGLGTQVTVSS", "polyreactivity (PSR sort gate)": "low polyreactivity"}
{"sequence": "QVQLVESGGGLVQAGGSLRLSCAASGSTFKYNTMGWYRQAPGKESELVARISWSGTRTYYADSVKGRFTISRYNAKNTVYLQMNSLKPEDTAVYYCAKVSYFWSPYGYDSCGQGTQVTVSS", "polyreactivity (PSR sort gate)": "high polyreactivity"}
{"sequence": "QVQLVESGGGLVQAGGSLRLSCAASGCTFPLYAMGWYRPAPGKERELVAAITSGGGNTYYADSVKGRFTISRDNAKNTVYLQMNSLKPEDTAVYYCAAVGGYKSYYSYEYDYWGQGTQVTVSS", "polyreactivity (PSR sort gate)": "low polyreactivity"}
{"sequence": "QVQLVESGGGLVQAGGSLRLSCAASGINFDDNAMGWYRQAPGKERELVATISDGGRTYYADSVKGRFTISRDNAKNTVYLQMNSQKPEDTAVYYCADRLWWPYSPAWAKMDYGGQGTQVTVSS", "polyreactivity (PSR sort gate)": "low polyreactivity"}
{"sequence": "QVQLVESGGGLVQAGGSLRLSCAASGFTFAYYAMGWYRPAPGKERELVATIRGGGSTNYADSVKGRFTISRDNAKNTVYLQMNSLKPEDTAVYYCAAGYVWYFDYFSAYYWGQGTQVTVSS", "polyreactivity (PSR sort gate)": "high polyreactivity"}
{"sequence": "QVQLVESGGGLVQAGGSLRLSCAASGSIFVNNAMVWYRQAPGKERELVAAISSRGGSTYYADSVKGRFTISRDNAKNTVYLQMNSLKPEDTAVYYCAAAGYGKVRGDYWGQGTQVTVSS", "polyreactivity (PSR sort gate)": "low polyreactivity"}
{"sequence": "QVQLVESGGGLVQAGGSLRLSCAASGFTLFGYAMGWYRQAPGKERELVAAITSGDGRTYYADSVKGRFTISRDNAKNTVYLQMNSLKPEDTAVYYCAATRYSSYYYVRHDHWGQGTQVTVSS", "polyreactivity (PSR sort gate)": "low polyreactivity"}
{"sequence": "QVQLVESGGGLVQAGGSLRLSCAASGRIFSTNARGWYRQAPGKQRELVAVITGIGGITYYADSVKGRFTISSDNAKNTVYLKMNSLKPEDTAVYYCGADPISEFYWGVKDRYDYWGQGTQVTVSS", "polyreactivity (PSR sort gate)": "low polyreactivity"}
{"sequence": "QVQLVESGGGLVQAGGSLRLSCAASAITYAYYPMGWYRQAPGKETELVAGITDVGSTNYADSVKGRFTLSRDNAKNTVYLQMNSLKPEDTAGYYCAAEYDGPYYSFYPEQRYYWGQGTQVTVSS", "polyreactivity (PSR sort gate)": "low polyreactivity"}
{"sequence": "QVQLVESGGGLVQAGRSLRLSCAASGRTFGYNPMGWYRQAPGKEREFVAAISYSGTSTYYADSVKGRFTISRDNAKNTVYLQMNSLKPEDTAVYYCNAEALISWRYDYWGQGTQVTVSS", "polyreactivity (PSR sort gate)": "low polyreactivity"}
{"sequence": "QVQLVESGGGLVQAGGSLRLSCAASGITFPLYVMGWSRQAPGKERELVAAISASGGSTYADSVKGRFTISRDNAKNTVYLQMNSLKPEDTAVYYCNADVYVGYDYDYWGQGTLVTVSS", "polyreactivity (PSR sort gate)": "low polyreactivity"}
{"sequence": "QVQLVESGGGFGQAGGSLRLSCAASGFTCGYYAMGWFRQAPGKERELVASISSRGGSTNYADSVKGRFTISRDHAKNTVYLQMNTMKPEDTAVYYCAAEYYRQRYEYDYWRQGTQVTVSS", "polyreactivity (PSR sort gate)": "high polyreactivity"}
{"sequence": "QVQLVESGGGLVQAGGSLRLRCAASGLIFYVYAMGWYRQAPGKERELVAAISYRGGSTYADSVKGRFTISRDNAKNTVYLQMNSLKPEDTAVYYCAAQRWYVYGLKYHYGYWGQGTQVTVSS", "polyreactivity (PSR sort gate)": "high polyreactivity"}
{"sequence": "QVQLVESGGGLVQAGGSLRLSCAASGRTFYTYAMGWNRQAPGKEREFVAAITGSGGSTYYADSVKWRFTISRDNAKNTVYLQMTSLKPDDRAVYYCNAGSPGDVWYYYWGQGTQVTVSS", "polyreactivity (PSR sort gate)": "low polyreactivity"}
{"sequence": "QVQLVESGGGLVQAGGSLRLSCAASGSTFFEYTMGWYRQAPGKEREFVADIRGRDGSTSYADSVKGRFTISRDNAKNTVYLQMKSLKPEDTAVYYCGADVSDWWSFGNDSWGHGTQVTVSS", "polyreactivity (PSR sort gate)": "low polyreactivity"}
{"sequence": "QVQLVESGGGLVQAGGSLRLSCAASGRTFTFYTMGWYRQAPGKERELVAAITSGGSTYYADSVKGRFTISRDNAKNTVYLQMNSLKPEDTAVYYCAAKYYYTYYYWGQGTQVTVSS", "polyreactivity (PSR sort gate)": "high polyreactivity"}
{"sequence": "QVQLVESGGGLVQAGGSLRLSCAASGLTFEWYTMGWYRQAPGKERALVAVITVSGSSTYYADSVKGRFSISRDNAKNTVYFQMNSLKPEDTAVYYCNADWSFYSYTLYDYWGQGTQVTVSS", "polyreactivity (PSR sort gate)": "low polyreactivity"}
{"sequence": "QVQLVESGGGLVQAGGSLRLSCAASGRTFAIYAMGWYRQAPGIEREFVAAISWSGGDTYYADSVKGRFTISRDNAKNTVYLQMNSLKPEDTAVYYCAARDNDYEGRDLQYELDYWGQGTHVTVSS", "polyreactivity (PSR sort gate)": "low polyreactivity"}
{"sequence": "QVQLVESGGGLVQAGGSLRLSCADSGSTFTRYGMGWYRQAPGKERELVAAITTSGSSTYYADSVKGRYTISRDNAKNTVYLQMNSLKPEDTAVYYCAADWSSWGFDYWGQGTQVTVSS", "polyreactivity (PSR sort gate)": "low polyreactivity"}
{"sequence": "QVQLVESGGGLVQAGGSLRLSCAASGNTFYAYAMGWYRQAPGKERELVAAIARGGNTYYADSVKGRFTISRDNAKNTVYLQMNSLKPEDTAVYYCNAYYPIRSSPYGYYYWGQGTQVTVSS", "polyreactivity (PSR sort gate)": "high polyreactivity"}
{"sequence": "QVQLVESGGGLVQAGGSLRISCAASGIILGYYPMGWYRQAPGKERELVAAINWSGASTYYADSVKGRFTISRDNAKNTVYLQMNCLKPEDTAVYDCNAVGYYYRGTGEYDYWGQGTQVTVSS", "polyreactivity (PSR sort gate)": "high polyreactivity"}
{"sequence": "QVQLVESGGGLVQAGGSLRLSCAASGRTFVIYAMGWYRQAPGKASELVAGIDSGTSTYADSVKGRFTISRDNAKNTVYLQMNSLKPEDTAVYYCAADFAPDGSGWYIPGDYDSWGQGTQVTVSS", "polyreactivity (PSR sort gate)": "low polyreactivity"}
{"sequence": "QVQHVESARGLVHAGGSLRLSCAASGGTFQYYAMGLSRQAPGKERELVAAISSSGSTYYADSVKGRFTISRDNAKNTVYLQMNSLKPEDTAVYYCAAGHISIYYYTFYYWGQGTQVTVSS", "polyreactivity (PSR sort gate)": "high polyreactivity"}
{"sequence": "QVQLVESGGGLVQAGGSLRLSCAASGRIFGYYAMGWYRQAPGKERELVAASTSSDASTYYADSVKGRFTISRDNAKNTDYLQMNSLKPEDTAVYYCNADYPTWSYYLSGYYGYWGQGTQVTVSS", "polyreactivity (PSR sort gate)": "low polyreactivity"}
